T1: LexR (Lysobacter antibioticus OH13, UniProt A0A0S2F3V0 1-384)
T1 sequence: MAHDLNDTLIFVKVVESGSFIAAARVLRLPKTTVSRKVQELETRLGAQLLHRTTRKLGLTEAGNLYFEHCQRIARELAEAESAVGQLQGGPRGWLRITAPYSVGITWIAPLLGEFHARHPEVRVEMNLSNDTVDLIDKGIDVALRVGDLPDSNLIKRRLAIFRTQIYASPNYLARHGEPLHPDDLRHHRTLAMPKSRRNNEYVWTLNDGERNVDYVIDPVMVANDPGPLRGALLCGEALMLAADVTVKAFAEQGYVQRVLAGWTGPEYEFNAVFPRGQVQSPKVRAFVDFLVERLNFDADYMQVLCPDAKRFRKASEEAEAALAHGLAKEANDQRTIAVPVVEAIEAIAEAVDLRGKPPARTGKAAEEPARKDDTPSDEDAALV

B1: lex probe (165 bp) (dsDNA)
DNA 1: ATGGGAGAAACGCGAATCGGGCTTGTCGGGGGCTCAACATGGCGGGGGGCCTCGTGTCGATCTGCGGCAAAGAGTAGAGAGATGGACGGCACTTGATTAGCCACTGATTCAGGGAATAATTGTCCCGACATCGGGCCAATGCCCTCTCTGCCTCCTTGAATGCCC
DNA 2: GGGCATTCAAGGAGGCAGAGAGGGCATTGGCCCGATGTCGGGACAATTATTCCCTGAATCAGTGGCTAATCAAGTGCCGTCCATCTCTCTACTCTTTGCCGCAGATCGACACGAGGCCCCCCGCCATGTTGAGCCCCCGACAAGCCCGATTCGCGTTTCTCCCAT
B2: unlabeled lex probe (165 bp) (dsDNA)
DNA 1: B1 DNA 1
DNA 2: B1 DNA 2
B3: probe 4 (probe 3 with putative LexR site) (dsDNA)
DNA 1: GGCTCCGCGCCTGCCAGCATAATTGTTCGTTGTCTGGGGGCTAGGGCGAGACACCCGC
DNA 2: GCGGGTGTCTCGCCCTAGCCCCCAGACAACGAACAATTATGCTGGCAGGCGCGGAGCC
B4: probe 1 (58 bp) (dsDNA)
DNA 1: ACTTGATTAGCCACTGATTCAGGGAATAATTGTCCCGACATCGGGCCAATGCCCTCTC
DNA 2: GAGAGGGCATTGGCCCGATGTCGGGACAATTATTCCCTGAATCAGTGGCTAATCAAGT
B5: probe 2 (50 bp, 8-bp site deleted) (dsDNA)
DNA 1: ACTTGATTAGCCACTGATTCAGGGACCCGACATCGGGCCAATGCCCTCTC
DNA 2: GAGAGGGCATTGGCCCGATGTCGGGTCCCTGAATCAGTGGCTAATCAAGT
B6: control probe (158 bp) (dsDNA)
DNA 1: ATGCGCCTCGCGATCAACACGGTCGCATCCCCTCTTTGCCAGCCACGGCTCCGCGCCTGCCAGCTTCTTTTTTCGTTGTCTGGGGGCTAGGGCGAGACACCCGCATACCGATGACTTCGTCGGCAGTGGCCCAAGACGGATTGCGTAGTGCGCCTACG
DNA 2: CGTAGGCGCACTACGCAATCCGTCTTGGGCCACTGCCGACGAAGTCATCGGTATGCGGGTGTCTCGCCCTAGCCCCCAGACAACGAAAAAAGAAGCTGGCAGGCGCGGAGCCGTGGCTGGCAAAGAGGGGATGCGACCGTGTTGATCGCGAGGCGCAT

Legend:
LexR [1] = target: T1, LexR; assay: EMSA; no myxin; EMSA (LightShift kit): 1x binding buffer, 50 ng/uL poly(dI-dC), 2.5% glycerol, 5 mM MgCl (so in the source), 0.05% NP-40, 5 fmol labeled probe in 20 uL, 30 min, room; conditions: protein: recombinant; tags: His6 (pET-28a, BamHI/EcoRI); chain copies: 2; label: 5' biotin; blunt
LexR [2] = target: T1, LexR; assay: competition; unlabeled competitor vs biotin-lex probe; EMSA (LightShift kit): 1x binding buffer, 50 ng/uL poly(dI-dC), 2.5% glycerol, 5 mM MgCl (so in the source), 0.05% NP-40, 5 fmol labeled probe in 20 uL, 30 min, room; conditions: protein: recombinant; tags: His6 (pET-28a, BamHI/EcoRI); chain copies: 2; label: none; blunt
LexR [3] = target: T1, LexR; assay: EMSA; EMSA (LightShift kit): 1x binding buffer, 50 ng/uL poly(dI-dC), 2.5% glycerol, 5 mM MgCl (so in the source), 0.05% NP-40, 5 fmol labeled probe in 20 uL, 30 min, room; conditions: protein: recombinant; tags: His6 (pET-28a, BamHI/EcoRI); chain copies: 2; label: 5' biotin; blunt

| Binder | binding result (LexR [3]) | also measured |
| --- | --- | --- |
| B1 | – | binding result (LexR [1]): binds |
| B2 | – | binding result (LexR [2]): binds |
| B3 | no binding | – |
| B4 | binds | – |
| B5 | no binding | – |
| B6 | no binding | – |
